Assay results from paper PMC7946940 (Nature Communications, 2021).
Residue numbers refer to the chain shown, from its start. Names may count otherwise.

How the values were obtained:
Conditions in all cases: both partners purified
[1] = target: T1, human VPS34 complex I (VPS34/VPS15/Beclin 1/ATG14L) (human, UniProt Q8NEB9 1-887; Q99570 1-1358; Q14457 1-450; Q6ZNE5 1-492); experiment: vesicle flotation assay; GTP-loaded Rab coupled by its C-terminal Cys to PE-MCC in 100 nm LUVs; 1.8 mM LUVs and 2 μM VPS34 complex, 25 mM HEPES pH 8.0, 150 mM NaCl, 1 mM TCEP, 30 min on ice; sucrose gradient, fractions on SDS-PAGE
T1 construct: VPS34, human, subunit of complex I; VPS15, human, subunit of complex I; Beclin 1, human, subunit of complex I; ATG14L, human, subunit of complex I; Heterotetramer; Purified on IgG beads and released with TEV protease; also called autophagy-specific complex I; source: Expi293F, transfected, purified (IgG beads, TEV protease elution, S200 gel filtration); copies: + + +

[2] = target: T2, human VPS34 complex II (VPS34/VPS15/Beclin 1/UVRAG) (human, UniProt Q8NEB9 1-887; Q99570 1-1358; Q14457 1-450; Q9P2Y5 1-699); experiment: HDX-MS; complex II (5 μM) alone or with 30 μM Rab5a-Q79L-GTP; 25 mM HEPES pH 8.0, 50 mM NaCl, 1 mM TCEP, room temperature; 3/30/300/3000 s
T2 construct: VPS34, human, subunit of complex II; VPS15, human, subunit of complex II; Beclin 1, human, subunit of complex II; UVRAG, human, subunit of complex II; Heterotetramer; Purified on IgG beads and released with TEV protease; also called endocytic complex II; source: Expi293F, transfected, purified (IgG beads, TEV protease elution, S200 gel filtration); copies: + + +

[3] = target: T2, human VPS34 complex II …; experiment: vesicle flotation assay; GTP-loaded Rab coupled by its C-terminal Cys to PE-MCC in 100 nm LUVs; 1.8 mM LUVs and 2 μM VPS34 complex, 25 mM HEPES pH 8.0, 150 mM NaCl, 1 mM TCEP, 30 min on ice; sucrose gradient, fractions on SDS-PAGE
[4] = target: T3, VPS34 (subunit of complex II–BATS in the cryo-ET structure) (human, UniProt Q8NEB9 1-887); experiment: cryo-EM structure; cryo-ET and subtomogram averaging, 9.8 Å; 16 μM complex II–BATS on LUVs decorated with Rab5a–GTP
T3 construct: VPS34, human; source: Expi293F, transfected, purified within complex II–BATS

[5] = target: T4, VPS15 (subunit of complex II–BATS in the cryo-ET structure) (human, UniProt Q99570 1-1358); experiment: as above
T4 construct: VPS15, human; source: Expi293F, transfected, purified within complex II–BATS

human VPS34 alone = target: T5, human VPS34 alone (human, UniProt Q8NEB9 1-887); experiment: cross-linking; proximity-triggered cross-linking by the unnatural amino acid BrCO6K at Rab5a residue 84; 50–100 molar excess of Rab5a over complex II, 100–200 molar excess over VPS34; overnight at 4 °C; SDS-PAGE and mass spectrometry of the bands
T5 construct: VPS34, human; printed mass 102 kDa; source: E. coli C41 (DE3), purified (Ni-NTA, heparin, gel filtration)

[6] = target: T2, human VPS34 complex II …; experiment: as above

T2 sequence (Q8NEB9 whole entry, chain 1 of 4): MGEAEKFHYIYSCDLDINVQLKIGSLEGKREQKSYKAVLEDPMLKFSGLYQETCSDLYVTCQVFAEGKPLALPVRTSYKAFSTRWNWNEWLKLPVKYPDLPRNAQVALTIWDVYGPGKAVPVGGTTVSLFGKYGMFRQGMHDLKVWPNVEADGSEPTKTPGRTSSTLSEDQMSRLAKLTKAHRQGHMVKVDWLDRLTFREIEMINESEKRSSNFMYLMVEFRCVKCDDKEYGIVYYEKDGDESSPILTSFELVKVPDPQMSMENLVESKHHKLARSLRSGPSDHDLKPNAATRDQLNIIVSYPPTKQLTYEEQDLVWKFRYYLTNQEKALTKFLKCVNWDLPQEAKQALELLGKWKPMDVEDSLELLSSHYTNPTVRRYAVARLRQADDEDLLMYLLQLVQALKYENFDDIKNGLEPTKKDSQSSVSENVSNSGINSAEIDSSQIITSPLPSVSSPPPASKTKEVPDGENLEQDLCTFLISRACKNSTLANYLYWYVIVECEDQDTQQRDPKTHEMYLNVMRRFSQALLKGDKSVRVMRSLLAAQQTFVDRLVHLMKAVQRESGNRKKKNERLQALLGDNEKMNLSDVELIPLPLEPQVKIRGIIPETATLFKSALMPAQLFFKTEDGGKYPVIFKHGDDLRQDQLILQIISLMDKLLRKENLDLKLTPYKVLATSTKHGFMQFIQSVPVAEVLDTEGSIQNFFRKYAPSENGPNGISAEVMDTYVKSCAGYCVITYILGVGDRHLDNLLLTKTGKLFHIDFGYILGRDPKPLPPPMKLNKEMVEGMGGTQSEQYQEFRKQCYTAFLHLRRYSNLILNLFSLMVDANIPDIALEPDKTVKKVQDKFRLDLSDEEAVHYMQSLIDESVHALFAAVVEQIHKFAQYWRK
T2 sequence (Q99570 whole entry, chain 2 of 4): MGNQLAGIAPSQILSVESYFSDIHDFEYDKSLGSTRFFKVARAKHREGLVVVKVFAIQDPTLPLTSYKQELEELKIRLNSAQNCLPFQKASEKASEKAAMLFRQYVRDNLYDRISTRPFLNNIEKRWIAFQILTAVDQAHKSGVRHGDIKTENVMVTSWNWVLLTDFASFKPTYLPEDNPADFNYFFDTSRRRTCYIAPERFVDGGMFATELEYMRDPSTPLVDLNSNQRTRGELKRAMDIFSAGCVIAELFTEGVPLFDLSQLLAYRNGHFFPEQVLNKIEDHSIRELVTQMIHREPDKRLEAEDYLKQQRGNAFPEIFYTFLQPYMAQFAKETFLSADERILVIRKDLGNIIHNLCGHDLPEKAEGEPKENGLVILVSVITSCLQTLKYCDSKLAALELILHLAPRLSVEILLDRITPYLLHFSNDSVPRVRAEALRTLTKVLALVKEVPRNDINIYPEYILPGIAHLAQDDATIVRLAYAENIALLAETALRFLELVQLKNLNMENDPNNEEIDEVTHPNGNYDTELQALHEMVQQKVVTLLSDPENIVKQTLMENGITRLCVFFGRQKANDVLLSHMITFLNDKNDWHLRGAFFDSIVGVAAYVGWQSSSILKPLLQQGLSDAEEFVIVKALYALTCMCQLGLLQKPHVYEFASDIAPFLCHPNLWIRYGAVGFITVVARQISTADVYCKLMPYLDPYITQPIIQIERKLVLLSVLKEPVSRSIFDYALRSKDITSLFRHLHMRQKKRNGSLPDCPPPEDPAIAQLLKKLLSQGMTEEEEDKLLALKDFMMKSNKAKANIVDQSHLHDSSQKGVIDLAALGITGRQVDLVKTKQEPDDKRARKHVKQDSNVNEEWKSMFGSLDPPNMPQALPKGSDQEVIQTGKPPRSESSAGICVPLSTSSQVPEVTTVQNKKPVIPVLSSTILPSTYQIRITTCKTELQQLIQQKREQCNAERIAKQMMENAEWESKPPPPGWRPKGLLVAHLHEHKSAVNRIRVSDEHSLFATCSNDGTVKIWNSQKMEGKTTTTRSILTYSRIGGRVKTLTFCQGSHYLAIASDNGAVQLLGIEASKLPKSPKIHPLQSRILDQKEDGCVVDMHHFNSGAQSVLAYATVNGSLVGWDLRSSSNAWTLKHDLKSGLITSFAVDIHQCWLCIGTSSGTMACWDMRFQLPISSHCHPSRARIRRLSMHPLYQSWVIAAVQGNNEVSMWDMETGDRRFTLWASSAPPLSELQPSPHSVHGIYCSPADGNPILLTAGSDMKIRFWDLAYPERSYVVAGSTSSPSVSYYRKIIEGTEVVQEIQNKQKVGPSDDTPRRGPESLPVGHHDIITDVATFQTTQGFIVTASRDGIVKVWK
T2 sequence (Q14457 whole entry, chain 3 of 4): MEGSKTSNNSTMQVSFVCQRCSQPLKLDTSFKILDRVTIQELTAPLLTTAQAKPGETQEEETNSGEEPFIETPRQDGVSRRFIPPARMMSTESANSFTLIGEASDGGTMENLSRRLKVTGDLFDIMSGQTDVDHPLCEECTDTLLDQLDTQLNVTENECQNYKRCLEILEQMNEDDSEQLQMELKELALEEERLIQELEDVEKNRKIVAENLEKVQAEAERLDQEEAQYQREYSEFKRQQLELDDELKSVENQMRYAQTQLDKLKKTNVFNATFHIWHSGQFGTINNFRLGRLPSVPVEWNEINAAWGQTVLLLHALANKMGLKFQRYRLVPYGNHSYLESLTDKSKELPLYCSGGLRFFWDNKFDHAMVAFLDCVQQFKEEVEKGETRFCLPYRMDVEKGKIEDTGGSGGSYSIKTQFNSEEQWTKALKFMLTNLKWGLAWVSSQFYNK
T2 sequence (Q9P2Y5 whole entry, chain 4 of 4): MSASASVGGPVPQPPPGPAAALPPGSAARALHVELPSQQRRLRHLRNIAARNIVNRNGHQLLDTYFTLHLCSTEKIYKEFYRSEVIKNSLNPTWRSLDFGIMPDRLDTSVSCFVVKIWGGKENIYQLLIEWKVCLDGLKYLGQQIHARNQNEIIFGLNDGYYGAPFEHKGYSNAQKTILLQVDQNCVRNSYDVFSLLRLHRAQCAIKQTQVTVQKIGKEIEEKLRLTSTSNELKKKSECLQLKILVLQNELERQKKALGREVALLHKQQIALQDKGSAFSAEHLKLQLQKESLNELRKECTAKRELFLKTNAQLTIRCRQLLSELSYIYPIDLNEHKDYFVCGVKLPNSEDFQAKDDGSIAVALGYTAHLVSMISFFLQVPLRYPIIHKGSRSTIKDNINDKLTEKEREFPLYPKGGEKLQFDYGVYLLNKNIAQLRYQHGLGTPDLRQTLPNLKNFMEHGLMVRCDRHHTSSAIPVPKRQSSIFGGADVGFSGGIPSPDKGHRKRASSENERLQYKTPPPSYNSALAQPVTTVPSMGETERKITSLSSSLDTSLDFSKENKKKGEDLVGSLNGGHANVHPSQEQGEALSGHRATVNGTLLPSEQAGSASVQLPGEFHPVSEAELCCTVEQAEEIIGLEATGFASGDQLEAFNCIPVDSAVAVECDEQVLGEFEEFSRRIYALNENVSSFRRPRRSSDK
T1 sequence (Q8NEB9 whole entry, chain 1 of 4): as the sequence (Q8NEB9 whole entry, chain 1 of 4) above
T1 sequence (Q99570 whole entry, chain 2 of 4): as the sequence (Q99570 whole entry, chain 2 of 4) above
T1 sequence (Q14457 whole entry, chain 3 of 4): as the sequence (Q14457 whole entry, chain 3 of 4) above
T1 sequence (Q6ZNE5 whole entry, chain 4 of 4): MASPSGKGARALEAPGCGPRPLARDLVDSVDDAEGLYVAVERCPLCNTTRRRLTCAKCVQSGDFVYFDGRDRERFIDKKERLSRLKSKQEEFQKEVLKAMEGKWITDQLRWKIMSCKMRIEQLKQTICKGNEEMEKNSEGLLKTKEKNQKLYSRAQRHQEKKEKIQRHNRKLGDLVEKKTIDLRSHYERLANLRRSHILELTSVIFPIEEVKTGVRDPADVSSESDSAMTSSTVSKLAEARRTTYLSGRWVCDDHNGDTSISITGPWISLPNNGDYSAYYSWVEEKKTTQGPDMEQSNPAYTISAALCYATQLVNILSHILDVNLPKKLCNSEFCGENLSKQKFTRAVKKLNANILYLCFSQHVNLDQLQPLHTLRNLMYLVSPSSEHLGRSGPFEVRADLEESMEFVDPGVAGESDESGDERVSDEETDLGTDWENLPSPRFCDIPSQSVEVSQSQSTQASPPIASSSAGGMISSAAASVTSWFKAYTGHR
T4 sequence (Q99570 whole entry, one chain of several): as the sequence (Q99570 whole entry, chain 2 of 4) above
T5 sequence (Q8NEB9 whole entry): as the sequence (Q8NEB9 whole entry, chain 1 of 4) above
T3 sequence (Q8NEB9 whole entry, one chain of several): as the sequence (Q8NEB9 whole entry, chain 1 of 4) above

B1: Rab1a(1–204)-Q70L-C26S-C126S (natural protein)
chain: not shown
modifications: C-terminal cysteine coupled covalently to a maleimide-conjugated lipid (PE-MCC) in the membrane
notes: Loaded with GTP or GDP before coupling to GUVs or LUVs; also called Rab1a–GTP; Rab1a–GDP; source: E. coli C41(DE3)RIPL, purified (Glutathione Sepharose, TEV protease, HiTrap Q, heparin, size-exclusion chromatography); not shown: GST, N-terminal, cleaved
B1: binds [1].

B2: Rab5a(1-211)-Q79L (natural protein, human, UniProt P20339 1-211, looked up)
chain: MASRGATRPNGPNTGNKICQFKLVLLGESAVGKSSLVLRFVKGQFHEFQESTIGAAFLTQTVCLDDTTVKFEIWDTAGLERYHSLAPMYYRGAQAAIVVYDITNEESFARAKNWVKELQRQASPNIVIALSGNKADLANKRAVDFQEAQSYADDNSLLFMETSAKTSMNVNEIFMAIAKKLPKNEPQNPGANSARGRGVDLTEPTQPTRNQ
notes: Rab5a, human, last 4 residues (CCSN) deleted, residues 1-211; Loaded with GTP; used soluble for HDX-MS; also called Rab5a-Q79L-GTP; Rab5a (Q79L) loaded with GTP; source: E. coli C41(DE3)RIPL, purified (as Rab5a(1–212)); not shown: His-SUMO, N-terminal, cleaved
B2: binds [2].

B3: Rab5a(1–212)-Q79L-C19S-C63S (natural protein, human, UniProt P20339 1-212, looked up)
chain: MASRGATRPNGPNTGNKISQFKLVLLGESAVGKSSLVLRFVKGQFHEFQESTIGAAFLTQTVSLDDTTVKFEIWDTAGLERYHSLAPMYYRGAQAAIVVYDITNEESFARAKNWVKELQRQASPNIVIALSGNKADLANKRAVDFQEAQSYADDNSLLFMETSAKTSMNVNEIFMAIAKKLPKNEPQNPGANSARGRGVDLTEPTQPTRNQC
modifications: C-terminal cysteine coupled covalently to a maleimide-conjugated lipid (PE-MCC) in the membrane
notes: Rab5a, human, residues 1–212; Loaded with GTP or GDP before coupling to GUVs or LUVs; also called Rab5a (Q79L); membrane-anchored Rab5a–GTP; source: E. coli C41(DE3)RIPL, purified (Ni-NTA, SUMO protease, size-exclusion chromatography); not shown: His-SUMO, N-terminal, cleaved
B3: binds [1]; binds [3]; binds [4]. B3: binds [5].

B4: Rab5a S84BrCO6K (Rab5a_Q79L_1-212_C19S_C63S_S84TAG-His6) (natural protein, human, UniProt P20339 1-212, looked up)
chain: B3 chain with S84K
modifications: BrCO6K (bromoalkyl-bearing lysine derivative, unnatural amino acid) at 84
notes: Rab5a, human, residues 1-212, amber codon at S84 read as BrCO6K; Loaded with GTP; Residue 84 is the lysine derivative BrCO6K, written as K; also called Rab5a–GTP–BrCO6K; Rab5a-84BrCO6K; source: E. coli DH10B, purified (Ni-NTA, size-exclusion chromatography)
B4: binds (human VPS34 alone); binds [6].
